From patent publication US20150266963A1 (ARGEN X B V, published 2015)
Read-outs that look alike come from different tables or passages of the source.

Tests used:
[1] = target: T1, human CD70 expressed on the surface of cells (human, UniProt P32970 1-193); assay: cell-based or functional assay
T1 sequence (looked up): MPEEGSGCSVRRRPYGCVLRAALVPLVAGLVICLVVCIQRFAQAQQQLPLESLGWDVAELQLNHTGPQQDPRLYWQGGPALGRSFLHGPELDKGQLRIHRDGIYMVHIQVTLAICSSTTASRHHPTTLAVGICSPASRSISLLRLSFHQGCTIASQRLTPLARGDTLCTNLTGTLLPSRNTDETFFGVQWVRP

[2] = target: T1, human CD70 expressed on the surface of …; assay: flow cytometry on 786-O cells; anti-human Fc-FITC
Protocol: Fluorescence of 10,000 cells/condition was measured using a flow cytometer and the median fluorescence was plotted.

[3] = target: T1, human CD70 expressed on the surface of …; assay: cell-based or functional assay; remark: listed apart in the source
[4] = target: T1, human CD70 expressed on the surface of …; assay: cell-based or functional assay; remark: listed apart in the source
[5] = target: T2, recombinant human CD70 (Flag-TNC-CD70) (human, UniProt P32970 39-193); assay: inhibition ELISA; Flag-TNC-CD70 captured by anti-Flag mAb; competitor CD27-Fc
T2 construct: extracellular domain; Captured by anti-Flag mAb in ELISA; as 'recombinant human CD70' immobilised on Biacore CM5 chips; TNC is for trimerisation; also called recombinant CD70; human recombinant CD70; not shown: Flag tag and TNC trimerisation domain
T2 sequence (looked up): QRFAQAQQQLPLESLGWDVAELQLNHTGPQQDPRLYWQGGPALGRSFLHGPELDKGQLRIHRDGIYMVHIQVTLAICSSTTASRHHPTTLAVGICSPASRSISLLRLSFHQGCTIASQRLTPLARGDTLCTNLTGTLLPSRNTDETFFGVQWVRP
Outline: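 Flag-TNC-CD70 captured by anti-Flag mAb, then incubated with CD27-Fc with or without titrated Fabs (periplasmic extracts) or chimeric mAbs. Bound CD27-Fc detected via biotinylated anti-CD27 mAb and strep-HRP, and blocking potency expressed as IC50.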

[6] = target: T2, recombinant human CD70 (Flag-TNC-CD70); assay: as above; remark: listed apart in the source
Protocol: From selected phage transfected into TG1, individual colonies were picked randomly for growth in 96 well plates. After IPTG induction according to standard protocols periplasmic fractions (penis) containing Fabs were prepared. […] In this assay, Flag-TNC-CD70 is captured by an anti-Flag mAb and binding of CD27-Fc is detected via a biotinylated anti-CD27 mAb and strep-HRP in the absence or presence of CD70 Fabs (FIGS. 2 and 3) or CD70 mAbs (FIG. 4). In FIG. 2B it can be seen that 27B3, which has an identical VH as 9D1, but contains a somewhat different light chain, seems to block binding of CD27 to CD70 more efficiently, which was in line with the better off rate of this Fab as measured on Biacore (data not shown). Table 3 indicates the blocking potency (expressed as IC50) for the various llama-human chimeric mAbs tested in the CD70 inhibition ELISA. […] FIG. 3 is a composite of an experiment testing llama CD70 Fabs for blocking activity (in the inhibition ELISA, see white bars) and for CD70 binding (binding ELISA, black bars). For the binding ELISA, Flag-TNC-CD70 is captured by an anti-Flag mAb and binding of the Fabs is detected using an anti-myc-HRP mAb, which recognizes the MYC tag fused to the C-terminus of the Fd fragment. For comparison purposes, known monoclonal antibodies to CD70 (SGN70 described in US 2010/0129362 A1, clone 1F6; and MDX69A7 described in WO2008/074004 FIGS. 5A and 5B) were tested in parallel. […] Of interest is clone 59D10, which as Fab has no blocking activity, but when converted into a chimeric IgG was antagonistic (see Table 3). Amino acid sequences of the VH and VL domains of binding and blocking llama-derived Fab clones are shown elsewhere herein (Tables 6-9).

[7] = target: T3, rhesus recombinant CD70 (FLAG-TNC-rhesus CD70) (rhesus); assay: inhibition ELISA; FLAG-TNC-rhesus CD70; competitor CD27-Fc
T3 construct: also called rhesus Flag-TNC-CD70
Source text: In this assay, Flag-TNC-CD70 is captured by an anti-Flag mAb and binding of CD27-Fc is detected via a biotinylated anti-CD27 mAb and strep-HRP in the absence or presence of CD70 Fabs (FIGS. 2 and 3) or CD70 mAbs (FIG. 4). In FIG. 2B it can be seen that 27B3, which has an identical VH as 9D1, but contains a somewhat different light chain, seems to block binding of CD27 to CD70 more efficiently, which was in line with the better off rate of this Fab as measured on Biacore (data not shown). Table 3 indicates the blocking potency (expressed as IC50) for the various llama-human chimeric mAbs tested in the CD70 inhibition ELISA. […] FIG. 3 is a composite of an experiment testing llama CD70 Fabs for blocking activity (in the inhibition ELISA, see white bars) and for CD70 binding (binding ELISA, black bars). For the binding ELISA, Flag-TNC-CD70 is captured by an anti-Flag mAb and binding of the Fabs is detected using an anti-myc-HRP mAb, which recognizes the MYC tag fused to the C-terminus of the Fd fragment. For comparison purposes, known monoclonal antibodies to CD70 (SGN70 described in US 2010/0129362 A1, clone 1F6; and MDX69A7 described in WO2008/074004 FIGS. 5A and 5B) were tested in parallel. […] Of interest is clone 59D10, which as Fab has no blocking activity, but when converted into a chimeric IgG was antagonistic (see Table 3). […]

B1: 27B3 chimeric llama-human mAb (antibody, human IgG1, V domains shown)
VH: EVQLVESGGGLVQPGGSLRLSCAASGFTFSVYYMNWVRQAPGKGLEWVSDINNEGGTTYYADSVKGRFTISRDNAKNTLTLQMNSLKPEDTALYYCVRDAGYSNHVPIFDSWGQGTQVIVAS
VL: QAVVTQEPSLTVSPGGTVTLTCGLKSGSVTSTNFPTWYQQTPGQAPRLLIYNTNTRHSGVPSRFSGSISENKAALTITGAQPEDEAEYFCALFISNPSVEFGGGTQLTVLS
notes: also called SIMPLE antibody 27B3; mAb 27B3
[1]
  IC50 (ng/ml), IL-8 secretion in Raji / HT1080-CD27 co-culture assay: 5 ng/mL
[2]
  EC50: 0.24 nM
[3]
  IC50, IL-8 secretion in Raji / HT1080-CD27 co-culture assay: 0.033 nM
[4]
  Raji co-culture assay IC50 relative to 27B3: 1 fold of 27B3
[5]
  IC50: 0.038 µg/mL
[6]
  IC50: 0.25 nM
[7]
  IC50: 0.15 µg/mL
